Legend:
[1] = molecular target: T1, Agrocybe aegerita peroxygenase AaeUPO1 variant SoLo (JaWa + F191S: V57A, L67F, V75I, F191S, G241D, I248V, R257K, F311L), SEQ ID NO: 42 (Cyclocybe aegerita, UniProt B9W4V6, F234S/F354L/G284D/I291V/L110F/R300K/V100A/V118I); test: Kinetic constants, SoLo variant; settings: SoLo vs parental JaWa, ABTS
T1 sequence (B9W4V6 44-371 V100A/L110F/V118I/F234S/G284D/I291V/R300K/F354L): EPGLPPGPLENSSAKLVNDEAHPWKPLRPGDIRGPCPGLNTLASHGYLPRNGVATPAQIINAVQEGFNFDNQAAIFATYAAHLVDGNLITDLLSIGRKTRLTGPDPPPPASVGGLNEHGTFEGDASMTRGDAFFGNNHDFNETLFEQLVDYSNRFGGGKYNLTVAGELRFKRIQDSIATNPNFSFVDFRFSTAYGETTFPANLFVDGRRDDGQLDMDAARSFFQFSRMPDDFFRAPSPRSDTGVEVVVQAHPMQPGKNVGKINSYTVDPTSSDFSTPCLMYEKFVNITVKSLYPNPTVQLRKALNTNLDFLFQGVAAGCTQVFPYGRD
Text: In order to calculate the values of Km and kcat, values of Vmax were represented at substrate concentrations and the hyperbole function was adjusted (using SigmaPlot 10.0, wherein the parameter a is equal to kcat and the parameter b, to Km).

[2] = Thermostability assay (T50), culture supernatants, residual activity with ABTS; type: physicochemical; settings: versus PaDa-I variant
Method: An individual S. cerevisiae colony was selected with the corresponding clone (grown in a SC drop-out minimal medium plate: 100 mL of 6.7% yeast nitrogen base, 100 mL of 19.2 g/L uracil-free amino acid supplement, 100 mL of 20% glucose, 1 mL of 25 g/L chloramphenicol and ddH2O up to 1,000 mL) was inoculated in 2 mL of selective minimal medium (as in the SC plate medium, but with 20 g of bacto agar and rafinose instead of galactose) and was incubated for 48 hour at 30° C. and 220 RPM. An aliquot of this culture was taken such that, upon inoculating it in 5 mL of new minimal medium, optical density at 600 nm would have a value of 0.25 (optical density, OD600=0.25). This starter was incubated until completing two full growth cycles (between 6 and 8 hours), at which time 1 mL of cells were taken to inoculate 9 mL of expression medium in a 100 mL flask (OD600=0.1). This culture of each clone was incubated for 72 hours at 25° C. and 220 RPM (at peak UPO activity; OD600=25-30), the cells were separated by centrifugation (10 minutes at 4,500 RPM and 4° C.) and supernatant was filtered (using a glass and nitrocellulose filter with a pore size of 0.45 μm). Appropriate dilutions of the supernatants were prepared so that aliquots of 20 μL would give rise to a linear response in kinetic mode. 50 μL of supernatant were used for each point in a temperature gradient created by means of thermocyclator, from 30 to 80° C. After incubating for 10 minutes, the aliquots were cooled in ice for 10 minute and tempered at room temperature for 5 minutes. […] The thermostability values were calculated in accordance with the ratio between the residual activities incubated at different temperatures and the value of initial activity at room temperature. The value of T50 was determined as the value of the temperature at which the protein loses 50% of it initial activity after incubating for 10 minutes.
An individual S. cerevisiae colony was selected with the corresponding clone (grown on a SC drop-out minimal medium plate: 100 mL of 6.7% yeast nitrogen base, 100 mL of 19.2 g/L uracil-free amino acid supplement, 100 mL of 20% glucose, 1 mL of 25 g/L chloramphenicol and ddH2O up to 1,000 mL), was inoculated in 3 mL of selective minimal medium (like the SC plate medium, but with 20 g of bacto agar and rafinose instead of galactose) and incubated for 48 hours at 30° C. and 220 RPM. […] The thermostability values were calculated in accordance with the ratio between the residual activities incubated at different temperatures and the value of initial activity at room temperature. The value of T50 was determined as as the temperature value at which the protein loses 50% of its initial activity after incubating for […].

[3] = 4-AAP assay with propranolol in the absence of ascorbic acid (peroxidase activity on the product); type: biochemical
Method: (§1) FIG. 9 Assay of 4-AAP (4-aminoantipyrine) with different pure UPO variants (AaeUPO1, PaDa-1 and JaWa). […] Each reaction was performed in triplicate.
(§2) The mother plates were centrifuged (Eppendorf 5810R centrifuge, Germany) for 10 minutes at 3,500 RPM and 4° C. 20 μL of supernatant of these mother plates were transferred to two replica daughter plates with the help of a Freedom EVO liquid-handling robot (Tecan, Switzerland).
(§3) Without ascorbic, the plates were incubated for 30 minutes and with ascorbic for 60 minutes. […] The plates were briefly agitated and absorbance measured at 530 nm, using a plate reader for such purpose ([…]ax Plus 384, Molecular Devices, USA). The values were normalised against the parental of each plate. To rule out false positives, re-screenings were carried out, in addition to a third re-screening wherein kinetic stability was determined (T50) (P. Molina-Espeja, et al. Appl. Environ. Microbiol. 2014. 80, 3496-3507).

[4] = Turnover with 5′-hydroxypropranolol as substrate, HPLC; type: biochemical; settings: 0.03 μM enzyme, 0.4 mM 5′-hydroxypropranolol, 2 mM H2O2, absence of ascorbic acid
Method: FIG. 14 Turnover rates of AaeUPO, JaWa and SoLo. […] The disappearance of the product 5′-hydroxypropranolol can be observed due to the formation of its corresponding quinone by means of the peroxidase activity of the enzyme.
(§4) The reactions were analysed by means of chromatography in reverse phase (HPLC). The equipment was composed of a tertiary pump (Varian-Agilent Technologies, USA) coupled to an autosampler (Merck Millipore, MA, USA); for the separation, a Zorbax Eclipse plus C18 column (15 cm×4.6 cm) at 40° C. was used and the detection was performed using a photodiode detector (PDA) (Varian, Agilent Technologies, USA). The mobile phase selected was a gradient from 10% methanol and 90% ddH2O (in both cases with 0.1% of acetic acid) up to 90% methanol and 10% ddH2O at a flow rate of 0.8 mL/min. The reaction was quantified at 280 nm (based on HPLC standards). […] The standard deviations were less than 5% in all cases.

[5] = 4-AAP assay with propranolol in the presence of ascorbic acid (peroxygenase activity); type: biochemical; settings: propranolol, in the presence of ascorbic acid
Method: as §1, §2, §3

[6] = Propranolol transformation reaction analysed by HPLC-PDA; type: biochemical; settings: absence of ascorbic acid
Method: FIG. 13 Chromatogram showing the enzyme reactions.
as §4

[7] = Total turnover number (TTN) for synthesis of 5′-hydroxypropranolol from propranolol; type: biochemical
Method: FIG. 15 Calculation of the total turnover number (TTN) of AaeUPO and SoLo.
as §4

CCn1c(=NN=c2sc3cc(S(=O)(=O)O)ccc3n2CC)sc2cc(S(=O)(=O)O)ccc21 [ABTS, 2,2′-azino-bis(3-ethylbenzothiazolin-6-sulfonic acid)]
affinity to the substrate with respect to its parental [1]: three fold worse

B1: SoLo: JaWa variant with added mutation F191S, SEQ ID NO: 42 (protein)
chain: MKYFPLFPTLVYAVGVVAFPDYASLAGLSQQELDAIIPTLEAREPGLPPGPLENSSAKLVNDEAHPWKPLRPGDIRGPCPGLNTLASHGYLPRNGVATPAQIINAVQEGFNFDNQAAIFATYAAHLVDGNLITDLLSIGRKTRLTGPDPPPPASVGGLNEHGTFEGDASMTRGDAFFGNNHDFNETLFEQLVDYSNRFGGGKYNLTVAGELRFKRIQDSIATNPNFSFVDFRFSTAYGETTFPANLFVDGRRDDGQLDMDAARSFFQFSRMPDDFFRAPSPRSDTGVEVVVQAHPMQPGKNVGKINSYTVDPTSSDFSTPCLMYEKFVNITVKSLYPNPTVQLRKALNTNLDFLFQGVAAGCTQVFPYGRD
increase in thermostability (T50) with respect to PaDa-I [2]: 2 °C
decrease in peroxidase activity relative to parental (JaWa) [3]: more than two fold
5′-hydroxypropranolol maintained without oxidising [4]: approximately 50%
peroxygenase activity on microplate higher than its parental (JaWa) [5]: 30%
regioselectivity against 5′-hydroxypropranolol ([6]; 0.03 μM enzyme, 4 mM propranolol, 2 mM H2O2): 99%
amount of 5′-hydroxypropranolol produced ([6]; compared among AaeUPO, PaDa-I, JaWa, SoLo): produce the largest amount of 5′-hydroxypropranolol
TTNs, With ascorbic acid ([7]; 0.03 μM enzyme, propranolol, 2 mM H2O2 added every 10 minutes, 4 mM ascorbic acid): 62,000
TTNs, Without ascorbic acid ([7]; 0.03 μM enzyme, propranolol, 2 mM H2O2 added every 10 minutes, absence of ascorbic acid): 45,000
increase in TTN for synthesis of 5′-hydroxypropranolol versus wild AaeUPO ([7]; absence of antioxidants): 15 fold
